The record followed here is the nanobody polyreactivity screen of Harvey et al. (2022).

The nature of this data set: yeast display, Sf9 membrane polyspecificity reagent, FACS + sequencing; frameworks hold sequencing errors. The method in brief:
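Synthetic nanobody libraries on Saccharomyces cerevisiae BJ5465 were galactose-induced for 36–48 hours, stained 1 hour at 4 °C with 10% biotinylated, detergent-solubilized Sf9 membrane reagent and enriched on streptavidin microbeads. FACS then separated cells into low and high (top ~1%) gates by anti-HA (expression) and streptavidin (reagent binding) fluorescence. Genes were colony-PCR amplified, MiSeq 2 × 250 sequenced and CDR-length filtered. A clone's polyreactivity label is that of its gate of origin.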
Take “QVQLVESGGGLVQAGGSLRLSCAASGFTFTYYAMGWYRQAPGKERELVASISRRGGDTYYADSVKGRFTISRDNAKNTVYLQMNSLKPEDTAVYYCATRRRQALDGGYYYWGQGTQVTVSS”: the “polyreactivity (PSR sort gate)” value is listed as “high polyreactivity”.

Consider “QVQLVESGGGLVQAGGSLRLSCAASGSIFIYYTMGWYRQAPGKEREFVASISWRGGRTYYADSVKGRFTISRDNAKNTVYLQMNSLKPEETAVYYCAAEQSRGIEFSYYSLYYWGQGTQVTVSS”, for which the “polyreactivity (PSR sort gate)” value is “high polyreactivity”.

Turning to “QVQLVESGGGLVQAGGSLRLSCDASGFISFGNAMGWNRQAPRKERELVAGISRSGGSTYYADSVKGRFTISRDNAKNTVYLQMISLKPEDTAVYYCATRVAIYPYRFDYWGQGTQVTVSS”, the “polyreactivity (PSR sort gate)” value was “high polyreactivity”.

On to “QVQLVESGGGLVQAGGSLRLRCAASGRTFLPYAMGWSRQAPGKVRVLVAAIDSSGTSTYYADSVKGRFTISRDNAKNTVYLQMNSLKPEDTAVYYCAKAWPDHWYSRYDYWGQGTQVTVSS”, for which the “polyreactivity (PSR sort gate)” value is given as “low polyreactivity”.

On to “QVQLVESGGGLVQAGGSLRLSCAASGSIFYWYAMGWYRQAPGKERELVAAISSSNDSTDYADSVKGRFTISRDNAKNTVYLQMNSLKPEDTAVYYCAARYGTIQYDYWGQGTQVTVSS”, for which the “polyreactivity (PSR sort gate)” value is “low polyreactivity”.

For “QVQLVESGGGLVQAGGSLRLSCAASGRTFIFNAMGWYRQAPGKERELVAAISSGGGTNYADSVKWRFTISRDNAKNTVYLQMNSMKPEDTAVYYCAAVPRDHYSYVYDGDKYDYWGQGTQVTVSS”, the “polyreactivity (PSR sort gate)” value was “low polyreactivity”.

With “QVQLVESAGGLVQAGGSLRLSCADSGSTFSPYAMGWYIDAPGKERELVAAIRSGRTSYADSVKGRFTISRDNAKNTVYLQMNSLKPEDTAVYYCAKASRVGYYWGQGTQVTESS”, the “polyreactivity (PSR sort gate)” value is listed as “high polyreactivity”.

Take “QGQLVESGGGLVQAGGSLRLTCAASGSTFRWNVMGWYRQAPGKERELVAAISSTGDNTYYADSVKGRFTISRDNAKNTGYLQMNSLKPEDTAVYYCAAGRGARDRARKHGYWGQGTQVTVSS”: the “polyreactivity (PSR sort gate)” value was “high polyreactivity”.

As for “QVQLVESGGGLVQAGGSLRLSCAASGINFSYYAMGWYRQAPGKERELVAAIRENGGSTYYADSVKGRFTISRDNAKNTVYLQMNSLKPEDTAVYYCAVDTTYYAGYEYDYWGQGTQVTVSS”, the “polyreactivity (PSR sort gate)” value is recorded as “low polyreactivity”.

For the sequence “QVHLVESGGGLVQAGGSLRLSCAASGRTFGINAMGWNRQAPGKERELVAVISFGDGGTYYADSVKGRFTISRDNAKNTVYLQMNSLKPEDTAVYYCATDYQSTSVWGGHFVINPYDYWGQGTQVTVSS”, the “polyreactivity (PSR sort gate)” value is on record as “low polyreactivity”.

On to “QVQLVESGGGLVQAGGSLRLSCAASGRIVSVNAMGWYRQAPGKERVLVAAITSGGRTNYADSVKGRFTISRDNAKNTVYLQMNSLNPEDTAVYFCAAPYLKGGEDEYWGQGTQVTVSS”, for which the “polyreactivity (PSR sort gate)” value was “high polyreactivity”.

Turning to “QVQLVESGGGLVQAGASLRLSCAASGSISKSYAMGWYRQAPGKERELVAAISWRGGSTYADSVKGRFTISRDNAKNTVYLQMNSLKPEDTAVYYCAAVPVHTGSLYWGFTTGYDYWGQGTQVTVSS”, the “polyreactivity (PSR sort gate)” value is given as “low polyreactivity”.

Regarding “QVQLVESGGGLVQAGGSLRLSCAASGRTFSNYAMGGYRQAPGKERELVAAISERGGSTYYADSVKGRFTISRDNPKNSVFVQLNSLKPEDTAVYDCNALFRLRAYAEMDYWGQGTQVTVSS”, the “polyreactivity (PSR sort gate)” value was “high polyreactivity”.

Regarding “QVQLVESGGGLVQAGGSLRLSCAASGFTFEKNAMGWYGQAPGKERELVAAISRGGSTYADSVKGRFTISRDNAKTTVDLQMNSLKPEDTAVYYCAADTVYIFSSAINGEFGYWGQGTQVTVSS”, the “polyreactivity (PSR sort gate)” value was “low polyreactivity”.

Consider “QVQLVESGGGLVQAGGSLRLSCAASGSIFRYNVMGWYRQAPGKERELVAAISYTGGRKYYADSVKGRFTISRDNAKNTVYLQMNRLKPEETAVYDCAALGWSGRYRYDYWGQGTQVTVAS”, for which the “polyreactivity (PSR sort gate)” value is “high polyreactivity”.

Regarding “QVQLVESGGGLVQAGGSLRLSCAASGRIYTRNTMGWYRQAPGKERELVAAITSRGGSTYYADSVKGRFTISRDNAKNTVYLQMNSLKPEDTAVYYCAADKPRSYYYWGLGTQVTVSS”, the “polyreactivity (PSR sort gate)” value is on record as “high polyreactivity”.
